Results taken from the supplement of paper PMC9170038.

Tests used:
[1] = test system: MS2 coat protein; test: apparent KD of MS2 coat protein, switch OFF state (with FMN for OFF switches, without FMN for ON switches); designed switch direction (-1 OFF switch, 1 ON switch): -1; higher = weaker reporter binding; conditions: FMN input: 0 or 200 uM; Eterna round: R93 (includes R88 designs)
Procedure, shortened: (§1)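 Apparent KD stands for the median, per design, of fits to normalised cluster binding curves. The curves came from titrating on-chip-transcribed RNA switches on Illumina sequencing clusters with SNAP-549-labelled MS2 coat protein, twofold from 0.7 or 1.5 nM to 3 µM. Buffer was 100 mM Tris-HCl pH 7.5, 80 mM KCl, 4 mM MgCl2, without or with constant ligand.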

[2] = test system: MS2 coat protein; test: apparent KD of MS2 coat protein, switch ON state; designed switch direction (-1 OFF switch, 1 ON switch): -1; higher = weaker reporter binding; conditions: FMN input: 0 or 200 uM; Eterna round: R93 (includes R88 designs)
Procedure, shortened: as §1

| Sequence | apparent KD of MS2 coat protein [1] [nM] | apparent KD of MS2 coat protein [2] [nM] |
| --- | --- | --- |
| AAACCACAUGAGGAUCACCCAUGUCAGGAUAUGAACGAAAUAAAAUAAAAAUAAAAGUUCAGAAGGGACGAAAA [Mat - Exclusion 1 - Eli mod - D17] | 33.8 | 27.3 |
| AAAGGACGAGGAUAUACAUGAGGAUCACCCAUGUAAAAAACAUAACAAAAGAACUUAUGUAGAAGGCGUCCAAA [69%, Moding Meechl, 2] | 403 | 54.4 |
| AAAGGACGAGGAUAUACAUGAGGAUCACCCAUGUAAGAAGCAUAAUAAAAUAACUUAUGUAGAAGGCGUCCAAA [Mat - Exclusion 3 - Eli mod - D94] | 69 | 26 |
| AAAGGAUCAGGAUAUGUGUGGAAAAAGUGUGUCCCAAAAAAACAUGAGGAUCACCCAUGUAGAAGGGAUCCAAA [Mod 5 of Normal (20/19) by Nando, Round 1] | 97.8 | 44.9 |
| AAAGGUACAGGAUAUGCGUGGAAAAAGUGUAUUCACCAACGACAUGAGGAUCACCCAUGUAGAAGGGUACCAAA [Mod of wbt1 from round 1] | 31.8 | 25.9 |
| AAAUGACAUGAGGAUCACCCAUGUCAGGAUAUGACUUGAAAAAAAAAAAAAAAACAUGUCAGAAGGGACAUGGA [Design 51: Sub-opt G] | 22.2 | 22.8 |
| AACAGGACAGGAUAUACAUGAGGAUCACCCAUGUAGGAAACAAGCAGAGUACCAAACAGUAGAAGGGUCAUGGA [Ruby 29] | 50.3 | 31.3 |
| AACAGGACAGGAUAUACAUGAGGAUCACCCAUGUAGGAAUUAAGCAGAGUACCAAACAGUAGAAGGGUCAUGGA [Ruby 27] | 44.7 | 33.3 |
| AACAGGGCAGGAUAUACAUGAGGAUCACCCAUGUAGGAAACAAGCAGAGUACCAAAAAGUAGAAGGGUCAUGGA [Ruby 31] | 33.1 | 30.2 |
| AACAGGUGAGGAUAUCUGGAUAGGAAAAAGAAAACCUAUCCAGAGAAGGCACAUGAGGAUCACCCAUGUAAAAA [JL cataway mod 8] | 96.2 | 78.5 |
| AACAGUACAGGAUAUACAUGAGGAUCACCCAUGUAAAAAAAGGGUGGCGUACCACGAAGUAGAAGGGUACUGGA [Moding Maslow revisited (73) 11] | 81.3 | 187 |
| AACAGUACAGGAUAUACAUGAGGAUCACCCAUGUCACAAUUAAGCAGCGUAACACAAAGUAGAAGGGUAAUGGA [Ruby 17] | 31.1 | 46.4 |
| AACAGUACAGGAUAUACAUGAGGAUCACCCAUGUCACAGAAAUAAAACAAAAAUAAAAGUAGAAGGGUACUGGA [Ruby 41] | 36.7 | 31.2 |
| AACAGUACAGGAUAUACAUGAGGAUCACCCAUGUGAAAAUUAAGUGGAGUACCACAAGGUAGAAGGGUACUGGA [Mat - Exclusion 3 - Eli mod - D61] | 101 | 27.7 |
| AACAGUACAGGAUAUACAUGAGGAUCACCCAUGUGAAUAAAUAGUGGCGUACCACAAAGUAGAAGGGUACUGGA [Mat - Exclusion 3 - JL mod - D25] | 136 | 27.4 |
| AACAGUACAGGAUAUACAUGAGGAUCACCCAUGUGAGAGAAAUAAAACAAAAAUAAAAGUAGAAGGGUACUGAA [Mat - Exclusion 3 - Eli mod - D67] | 36 | 31.8 |
| AACAUGUUAGGAUAUAGAAGAAAAGAAAAGAAAGAAAAGAACUAGAAGGAACAUGAGGAUCACCCAUGUAAGAA [EteRNA is fun!] | 26.1 | 30.9 |
| AACAUGUUAGGAUAUCAAAGAAAAGAAAAGAAAGAAAAGAAUGAGAAGGAACAUGAGGAUCACCCAUGUAAGAA [EteRNA is fun!] | 22.1 | 23 |
| AACUAGUCAGGAUAUACGAACAUGUCAAAAAACAUGAAGGGACAUGAGGAUCACCCAUGUAGAAGGGACUAGCA [74%, Web mod - With 3 less G's] | 209 | 60.5 |
| AACUGACAUGAGGAUCACCCAUGUCAGGAUAUGACUUGAUAGAAAAAAAAAUAUCAUGUCAGAAGGGACAUGGG [Design 56 :P Sub-opt I] | 12.8 | 21.4 |

| Sequence | apparent KD of MS2 coat protein [1] [nM] | apparent KD of MS2 coat protein [2] [nM] |
| --- | --- | --- |
| AACUGACAUGAGGAUCACCCAUGUCAGGAUAUGAUAUGUAAAAAAAAAAAAAUACUUAUCAGAAGGGACAUGGG [Design 40: Sub-opt AB] | 15.4 | 15.3 |
| AACUGACAUGAGGAUCACCCAUGUCAGGAUAUGAUUUGACGAAAAAAAACACGUCAUAUCAGAAGGGACAUGGA [Design 85: Sub-opt X] | 39.5 | 23.7 |
| AACUGGCUAGGAUAUACGUAAUAAAAUAUCAGUGAGAUUUCACAUGAGGAUCACCCAUGUAGAAGGAGCAAAAU [Esxereorar] | 16.6 | 24.5 |
| AAGAAACAUGAGGAUCACCCAUGUCAGGAUAUGAAAAAGAAAAGAAAAGAAAGAAGAAUCAGAAGGGACAAAGG [Neferkauhor Khuwihapi] | 27.4 | 74.1 |
| AAGAAACAUGAGGAUCACCCAUGUGAGGAUAUUCAAAAGAAAAGAAAAGAAAGAAGAAGAAGAAGGCACAAAGG [Neferkamin] | 45.5 | 24.7 |
| AAGAAAGGAGGAUAUACAAGAAAGAAAGAAAAGAAAAGAAAACAUGAGGAUCACCCAUGUAGAAGGCCUUAGAA [EteRNA is fun!] | 17.8 | 26.9 |
| AAGAACCUAGGAUAUACAAAAUAAAAGAAAAGAAAGAAAGAACAUGAGGAUCACCCAUGUAGAAGGAGGAAGAA [Renseneb] | 18.5 | 48.3 |
| AAGAACUCAGGAUAUACAUGAGGAUCACCCAUGUAAAAGAAAGAAAAGGGAAAGAAAAGUAGAAGGGAGAAGAA [Neferkheperure-waenre Amenhotep IV] | 36.2 | 32.7 |
| AAGAACUGAGGAUAUACACAAGAAAAGAAAAGAAAGAAAGAACAUGAGGAUCACCCAUGUAGAAGGCGGAAGAA [Merhotepre Sobekhotep V] | 26.5 | 39.3 |
| AAGAAGAUAGGAUAUACAAAAUAAAAGAAAAGAAAGAAAGAACAUGAGGAUCACCCAUGUAGAAGGAUCAAGAA [Sehetepibre Amenemhat I] | 17.7 | 25 |
| AAGAAGCUAGGAUAUACAUGAGGAUCACCCAUGUAAAAGAAAGAGGGAAAAGAGAAAAGUAGAAGGAGCAAGAA [Cleopatra I] | 25.4 | 27.8 |
| AAGAAGUAAGGAUAUACAAGAAAGAAAGAAAAGAAAAGAAAACAUGAGGAUCACCCAUGUAGAAGGUACUAGAA [EteRNA is fun!] | 14.9 | 24.1 |
| AAGAAGUCAGGAUAUACUAAAGAAAUAAAAAGAAAGAAAGAACAUGAGGAUCACCCAUGUAGAAGGGACAAGAA [Sewadjare Mentuhotep V] | 31.7 | 67.4 |
| AAGAAGUCAGGAUAUGCUGCUCGUCACUUGCGUGAUGAGUAGCAGAAGGGACAUGAGGAUCACCCAUGUGGAAA [Modifying Chris (69%) Late G segment 2] | 246 | 123 |
| AAGAAGUGAGGAUAUUCGGAUAGGAAAACGAAAACCUAUCCGAAGAAGGCACAUGAGGAUCACCCAUGUAAAAA [Mat - Exaclusion 4 - Eli mod - D41] | 54.3 | 36.7 |
| AAGAAGUUAGGAUAUACAAAAUAAAAGAAAAGAAAGAAAGAACAUGAGGAUCACCCAUGUAGAAGGGACAAGAA [Nubkaure Amenemhat II] | 33.9 | 59.2 |
| AAGAAUGAAGGAUAUACAAGGAAGAAAGAAAAGAAAAGAAAACAUGAGGAUCACCCAUGUAGAAGGUCAUAGAA [EteRNA is fun!] | 26.3 | 22 |
| AAGAGUACAGGAUAUAUGUGAAAAGAGUCGAAAGACUCAAAACAUGAGGAUCACCCAUGUAGAAGGGUACUCAA [Diamond 74] | 27.3 | 52.5 |
| AAGAGUACAGGAUAUAUGUGAAAAGAGUCGAAAGACUCGGGACAUGAGGAUCACCCAUGUAGAAGGGUACUCAA [Diamond 75] | 79.7 | 75.7 |
